The values below come from patent US20200353078A1 (AstraZeneca / MedImmune, published 2020).

Test [1] concerns the target T1, Human IL-33 Flag®His (human).
T1 construct: Mature IL-33 with C-terminal FLAG 10xHis tag, from E. coli; biotinylated via free cysteines where used biotinylated; also called Mature Human IL-33_FH; human IL-33 FH
T1 chain: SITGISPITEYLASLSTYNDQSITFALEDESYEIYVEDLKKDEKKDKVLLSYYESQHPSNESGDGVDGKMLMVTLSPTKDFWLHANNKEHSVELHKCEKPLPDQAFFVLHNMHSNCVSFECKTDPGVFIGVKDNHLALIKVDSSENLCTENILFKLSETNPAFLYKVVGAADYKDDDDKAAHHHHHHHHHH
Description: phage ELISA.

For test [2], the target named is T2, Mouse IL-33 Flag®His (mouse).
T2 construct: C-terminal FLAG 10xHis tag, E. coli; also called Mature Mouse IL-33_FH; mouse IL-33 FH
T2 chain: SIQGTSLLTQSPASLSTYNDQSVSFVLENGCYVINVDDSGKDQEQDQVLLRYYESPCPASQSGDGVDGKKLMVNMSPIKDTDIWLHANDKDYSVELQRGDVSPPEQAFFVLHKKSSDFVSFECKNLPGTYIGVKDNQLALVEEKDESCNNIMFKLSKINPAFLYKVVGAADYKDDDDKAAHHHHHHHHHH
Description: phage ELISA.

The target of test [3] is T3, Cynomolgus IL-33 Flag®His (cynomolgus monkey).
T3 construct: C-terminal FLAG 10xHis tag, E. coli; also called Mature Cynomolugus IL-33; cyno IL-33 FH
T3 chain: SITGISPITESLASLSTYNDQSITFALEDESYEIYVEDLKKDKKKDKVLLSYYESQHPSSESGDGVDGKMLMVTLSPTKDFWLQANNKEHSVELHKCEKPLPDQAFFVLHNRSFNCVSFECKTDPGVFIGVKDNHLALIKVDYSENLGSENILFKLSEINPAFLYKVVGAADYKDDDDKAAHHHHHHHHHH
The experiment in a line: phage ELISA.

Test [4] deals with T1, Human IL-33 Flag®His. Description: HTRF, test protein competing with biotinylated IL33-01 for DyLight650 labelled IgG. How it is done: (§1) Human, cyno and mouse IL-33 FLAG® His (described in Example 1 and Table 21), Human IL-1 alpha and IL-1 beta (R&D Systems) (Table 21) or rat IL-33 (GenScript) were tested for inhibition of human IL-33 binding to DyLight650 labelled 33_640087-7B or DyLight650 labelled 33_640237-2B by adding 5 microlitres of each dilution of sample to a 384 well low volume assay plate (Costar, 3673). […] This was followed by the addition of 2.5 microlitres of a solution containing 0.12 nM biotinylated human IL-33-01 combined with 0.75 nM streptavidin cryptate detection (Cisbio International, 610SAKLB). All dilutions were performed in assay buffer containing 0.8 M potassium fluoride (VWR, 26820.236) and 0.1% bovine serum albumin (BSA, PAA, K05-013) in Dulbeccos PBS (Invitrogen, 14190185). Assay plates were incubated for 4 hours at room temperature followed by 18 hours at 4 degrees Celsius and time resolved fluorescence was read at 620 nm and 665 nm emission wavelengths using an EnVision plate reader (Perkin Elmer). Data were analysed by calculating the 665/620 nm ratio followed by the % Delta F values for each sample. The 665/620 nm ratio was used to correct for sample interference using Equation 1. The % Delta F for each sample was then calculated using Equation 2. The negative control (non-specific binding) was defined by replacing biotinylated human IL-33 combined with streptavidin cryptate detection with streptavidin cryptate detection only. The % Delta F values were subsequently used to calculate % specific binding as described in Equation 3. IC₅₀ values were determined using GraphPad Prism software by curve fitting using a four-parameter logistic equation (Equation 4).

For test [5], the target named is T2, Mouse IL-33 Flag®His. Described as above. The method, then: as §1
Test [6] has as its target T3, Cynomolgus IL-33 Flag®His. The description is as above. How it is done: as §1
Test [7] addresses T4, Human IL-1 alpha (R&D Systems) (human, UniProt P01583 113-271).
T4 sequence (looked up): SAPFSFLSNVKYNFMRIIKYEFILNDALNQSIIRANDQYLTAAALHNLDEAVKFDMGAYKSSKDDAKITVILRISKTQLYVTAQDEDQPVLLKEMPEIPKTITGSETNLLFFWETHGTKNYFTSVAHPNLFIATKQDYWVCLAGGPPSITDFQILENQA
Description: HTRF: unlabelled test protein competes with biotinylated human IL33-01 for DyLight650 labelled 33_640237-2B IgG. An outline of the steps: (§2)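 HTRF competition: dilutions of unlabelled test protein competed with biotinylated human IL-33-01 (0.12 nM solution, with 0.75 nM streptavidin cryptate) for DyLight650-labelled 33_640087-7B or 33_640237-2B, in DPBS with 0.8 M KF and 0.1% BSA. Incubation was 4 h at RT, then 18 h at 4 °C. The 665/620 nm ratio gave % specific binding; IC50 by four-parameter fit.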

The next test concerns the target T5, Rat IL-33 (GenScript) (rat, UniProt Q66H70 109-264, limits assumed).
T5 sequence (looked up): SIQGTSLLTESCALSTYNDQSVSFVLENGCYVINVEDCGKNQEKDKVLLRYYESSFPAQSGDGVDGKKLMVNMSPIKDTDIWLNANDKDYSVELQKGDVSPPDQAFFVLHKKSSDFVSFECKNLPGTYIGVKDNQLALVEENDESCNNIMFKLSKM
The test is described as above. An outline of the steps:
as §2

Test [8] has as its target Human IL-1 beta (R&D Systems) (human, UniProt P01584 117-269). The description is as above. An outline of the steps:
as §2

The next test concerns the target T6, His10/Avi Human IL33-01 (human).
T6 chain: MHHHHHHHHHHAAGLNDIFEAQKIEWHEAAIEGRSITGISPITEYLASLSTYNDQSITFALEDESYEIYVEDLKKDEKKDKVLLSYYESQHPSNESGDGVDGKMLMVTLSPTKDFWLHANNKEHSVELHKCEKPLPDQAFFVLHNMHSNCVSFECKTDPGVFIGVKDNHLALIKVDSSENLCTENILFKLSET
The experiment in a line: cell-based or functional assay.

Test [9] concerns the target T7, Human ST2-Fc (R&D Systems, or source not stated in the example) (human, UniProt Q01638 19-328).
T7 construct: extracellular domain; also called sST2.Fc; sST2
T7 sequence (looked up): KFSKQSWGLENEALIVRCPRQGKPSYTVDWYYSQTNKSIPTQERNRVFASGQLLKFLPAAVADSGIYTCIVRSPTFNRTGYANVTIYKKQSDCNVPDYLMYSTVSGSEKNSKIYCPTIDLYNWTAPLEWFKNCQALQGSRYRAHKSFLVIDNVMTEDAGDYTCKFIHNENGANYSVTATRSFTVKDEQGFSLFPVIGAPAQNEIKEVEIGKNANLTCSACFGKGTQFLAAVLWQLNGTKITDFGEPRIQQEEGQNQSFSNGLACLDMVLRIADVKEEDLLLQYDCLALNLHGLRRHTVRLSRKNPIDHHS
The experiment in a line: Biacore T100, ST2-Fc captured on Protein G', peptide as analyte. The text has this: The identified peptide together with a truncate ([…]) and scrambled variants of both, were then chemically synthesised and used in confirmatory T100 Biacore (GE Healthcare) binding studies. Protein G′ (Sigma Aldrich, P4689) was covalently coupled to the surface of a CM5 sensor chip (GE Healthcare) using standard amine coupling reagents according to manufacturer's instructions. The protein G′ surface was used to capture H338L293 or ST2-Fc via the Fc domain to provide a surface density of approximately 290 RU per cycle. IL33 peptides prepared in HBS-EP+ buffer, at a range of concentrations were passed over the sensor chip surface. The surface was regenerated using two 10 mM Glycine washes of pH 1.7 and pH 1.5 between each injection of antibody. The resulting sensorgrams were evaluated using Biacore T100 evaluation software 2.0.3 (GE Healthcare) and fitted to a 1:1 Langmuir binding model, to provide relative binding data.
A general note: Surface plasmon resonance follows binding to a sensor surface in real time, without labels.

B1: IL330180 scFv (scFv, V domains shown)
VH: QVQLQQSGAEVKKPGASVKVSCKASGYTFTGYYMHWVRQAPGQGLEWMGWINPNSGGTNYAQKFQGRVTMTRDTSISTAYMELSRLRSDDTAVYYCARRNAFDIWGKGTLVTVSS
VL: QPVLTQPPSVSEAPRQRVTISCSGSSSNIGNNAVNWYQQLPGTAPKLLIYRNNQRPSGVPDRFSGSKSGTSASLAISGLRSEDEADYYCAAWDDSLSGWVFGGGTKVNVL
For B1, the binding result in the test with Human IL-33 Flag®His [1] is “binds”; with Mouse IL-33 Flag®His [2] it was “no binding”; in [3], “no binding”.

B2: 33_640237-2B IgG1 (antibody, V domains shown)
VH: EVQLLESGGGLVQPGGSLRLSCAASGFTFSSYAMSWVRQAPGKGLEWVSGIADDFTSTYYADPVKGRFTISRDNSKNTLYLQMNSLRAEDTAVYYCARDLWMMNYAGGLRYPFGYWGQGTMVTVSS
VL: SYVLTQPPSVSVSPGQTASITCSGERMGDKYAAWYQQKPGQSPVLVIYRDTKRPSGIPERFSGSNSGNTATLTISGTQAMDEADYYCGVLKQDTGVFGGGTKLTVL
notes: IgG1
Turning to B2, the binding result is given as “binds” with Human IL-33 Flag®His [4]; “no binding” with Mouse IL-33 Flag®His [5]; “binds” in test [6]; “no binding (tested: about 10^-5.8 M)” in test [7]; “no binding (tested: about 10^-5.5 M)” in the test with Rat IL-33 (GenScript); “no binding (tested: about 10^-5.8 M)” in test [8]. Further, in the test with His10/Avi Human IL33-01, the “IC50 (nM) vs. His Avi IL-33, Huvec IL-8 assay” value was found to be 0.067 nM.

B3: IL-33 tryptic epitope peptide (full length synthetic epitope peptide) (peptide)
peptide: MLMVTLSPTKDFWLHANNKEHSVELHK
notes: Chemically synthesised; also called predicted tryptic IL-33 fragment
For B3, in [9], the binding result is given as “no binding”.
